Series [1] deals with HeLa Kyoto. Description: melting temperature (median over replicates), in situ; higher = more thermally stable.
Series [2] deals with HeLa Kyoto. Description: solubility in G1/S (NP-40 vs SDS abundance) (log2 ratio); higher = more soluble. The following applies: cell cycle stage: G1/S.
Series [3] concerns HeLa Kyoto. Description: solubility change mitosis vs G1/S (difference of NP-40 vs SDS log2 ratios) (log2 ratio difference); higher = more soluble in mitosis.
Series [4] has as its system HeLa Kyoto. The series can be described thus: thermal stability score vs G1/S (z-score of summed log2 fold changes over temperatures); higher = more thermally stable than in G1/S.
[5] abbreviates: cell cycle stage: early G1 (4.5 h after nocodazole release).
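Throughout, for melting temperature (median over replicates), in situ: HeLa Kyoto cells synchronized by double thymidine or nocodazole block, proteins quantified by TMT10plex mass spectrometry, three independent biological replicates.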
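Throughout, for solubility change mitosis vs G1/S (difference of NP-40 vs SDS log2 ratios): synchronized HeLa Kyoto cells (double thymidine block for G1/S, nocodazole release for mitosis), protein amounts in NP-40 versus SDS lysates quantified by mass spectrometry, three biological replicates.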
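Throughout, for solubility in G1/S (NP-40 vs SDS abundance): HeLa Kyoto cells arrested at G1/S by double thymidine block, proteins quantified by TMT10plex mass spectrometry in mild NP-40 versus SDS extracts, three biological replicates.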
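Throughout, for thermal stability score vs G1/S (z-score of summed log2 fold changes over temperatures): synchronized HeLa Kyoto cells, proteins quantified by TMT10plex mass spectrometry, three biological replicates, mitosis taken 0.5 h after nocodazole release, G1/S directly after double thymidine block.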

As for “MSLLGDPLQALPPSAAPTGPLLAPPAGATLNRLREPLLRRLSELLDQAPEGRGWRRLAELAGSRGRLRLSCLDLEQCSLKVLEPEGSPSLCLLKLMGEKGCTVTELSDFLQAMEHTEVLQLLSPPGIKITVNPESKAVLAGQFVKLCCRATGHPFVQYQWFKMNKEIPNGNTSELIFNAVHVKDAGFYVCRVNNNFTFEFSQWSQLDVCDIPESFQRSVDGVSESKLQICVEPTSQKLMPGSTLVLQCVAVGSPIPHYQWFKNELPLTHETKKLYMVPYVDLEHQGTYWCHVYNDRDSQDSKKVEIIIGRTDEAVECTEDELNNLGHPDNKEQTTDQPLAKDKVALLIGNMNYREHPKLKAPLVDVYELTNLLRQLDFKVVSLLDLTEYEMRNAVDEFLLLLDKGVYGLLYYAGHGYENFGNSFMVPVDAPNPYRSENCLCVQNILKLMQEKETGLNVFLLDMCRKRNDYDDTIPILDALKVTANIVFGYATCQGAEAFEIQHSGLANGIFMKFLKDRLLEDKKITVLLDEVAEDMGKCHLTKGKQALEIRSSLSEKRALTDPIQGTEYSAESLVRNLQWAKAHELPESMCLKFDCGVQIQLGFAAEFSNVMIIYTSIVYKPPEIIMCDAYVTDFPLDLDIDPKDANKGTPEETGSYLVSKDLPKHCLYTRLSSLQKLKEHLVFTVCLSYQYSGLEDTVEDKQEVNVGKPLIAKLDMHRGLGRKTCFQTCLMSNGPYQSSAATSGGAGHYHSLQDPFHGVYHSHPGNPSNVTPADSCHCSRTPDAFISSFAHHASCHFSRSNVPVETTDEIPFSFSDRLRISEK [MALT1]”, the melting temperature in the series with HeLa Kyoto [1] (cell cycle stage: G1/S) was 49 °C; in the series on HeLa Kyoto [1] (cell cycle stage: mitosis), 49.4 °C. Besides, the “solubility in G1/S (log2)” value in the series on HeLa Kyoto [2] is -0.00137. In the series with HeLa Kyoto [3], the “solubility change mitosis (log2)” value was -0.158. Besides, the thermal stability score worked out at 0.111 in the series with HeLa Kyoto [4] (setting [5]) and 0.543 in the series on HeLa Kyoto [4] (cell cycle stage: mitosis).
As to “MSLLLLLLLVSYYVGTLGTHTEIKRVAEEKVTLPCHHQLGLPEKDTLDIEWLLTDNEGNQKVVITYSSRHVYNNLTEEQKGRVAFASNFLAGDASLQIEPLKPSDEGRYTCKVKNSGRYVWSHVILKVLVRPSKPKCELEGELTEGSDLTLQCESSSGTEPIVYYWQRIREKEGEDERLPPKSRIDYNHPGRVLLQNLTMSYSGLYQCTAGNEAGKESCVVRVTVQYVQSIGMVAGAVTGIVAGALLIFLLVWLLIRRKDKERYEEEERPNEIREDAEAPKARLVKPSSSSSGSRSSRSGSSSTRSTANSASRSQRTLSTDAAPQPGLATQAYSLVGPEVRGSEPKKVHHANLTKAETTPSMIPSQSRAFQTV [CLMP]”, the melting temperature with HeLa Kyoto [1] (cell cycle stage: G1/S) turned out to be 55 °C; in the series with HeLa Kyoto [1] (cell cycle stage: mitosis) it was 55.4 °C. Besides, the “solubility in G1/S (log2)” value with HeLa Kyoto [2] stood at 0.0444. The “solubility change mitosis (log2)” value with HeLa Kyoto [3] is -0.0674. The results for the thermal stability score with HeLa Kyoto [4] (setting [5]) and in the series with HeLa Kyoto [4] (cell cycle stage: mitosis) were -1.13 and -0.751, respectively.
Turning to “MSLMVSAGRGLGAVWSPTHVQVTVLQARGLRAKGPGGTSDAYAVIQVGKEKYATSVSERSLGAPVWREEATFELPSLLSSGPAAAATLQLTVLHRALLGLDKFLGRAEVDLRDLHRDQGRRKTQWYKLKSKPGKKDKERGEIEVDIQFMRNNMTASMFDLSMKDKSRNPFGKLKDKIKGKNKDSGSDTASAIIPSTTPSVDSDDESVVKDKKKKSKIKTLLSKSNLQKTPLSQSMSVLPTSKPEKVLLRPGDFQSQWDEDDNEDESSSASDVMSHKRTASTDLKQLNQVNFTLPKKEGLSFLGGLRSKNDVLSRSNVCINGNHVYLEQPEAKGEIKDSSPSSSPSPKGFRKKHLFSSTENLAAGSWKEPAEGGGLSSDRQLSESSTKDSLKSMTLPSYRPAPLVSGDLRENMAPANSEATKEAKESKKPESRRSSLLSLMTGKKDVAKGSEGENPLTVPGREKEGMLMGVKPGEDASGPAEDLVRRSEKDTAAVVSRQGSSLNLFEDVQITEPEAEPESKSEPRPPISSPRAPQTRAVKPRLEVSPEAQPTARLPSPTDSPSSLPPLPSSSGQASVPSELGHGADTQSSESPSVFSSLSSPIAAPISTSTPIESWPLVDRGQAKSEGPPLLPKAELQTESLTPVPNSGSSALGSLFKQPSFPANKGTEDSLMGRTRETGTEKNTSSLELEESLPEQPETGRQEEELPRFPCKKQDYSPSSGEAQEVPFALSLSSDGAVSPVGELAAGGDRDLESQAGSLVESKARDAAEEVAPPLPMGASVPSIDSMMRKLEEMGLNLRKDQKKTKKRVSFSEQLFTEEAVAGAALLVEGHSSCPQELNPAWSVAGNASDGEPPESPHAEDSERESVTTPGPATCGAPASPADHLLLPSQEESFSEVPMSEASSAKDTPLFRMEGEDALVTQYQSKASDHEGLLSDPLSDLQLVSDFKSPIMADLNLSLPSIPEVASDDERIDQVEDDGDQVEDDGETAKSSTLDIGALSLGLVVPCPERGKGPSGEADRLVLGEGLCDFRLQAPQASVTAPSEQTTEFGIHKPHLGKSSSLDKQLPGPSGGEEEKPMGNGSPSPPPGTSLDNPVPSPSPSEIFPVTHSFPSSAHSDTHHTSTAESQKKATAEGSAGRVENFGKRKPLLQAWVSPSETHPVSAQPGAGTGSAKHRLHPVKPMNAMATKVANCSLGTATIISENLNNEVMMKKYSPSDPAFAYAQLTHDELIQLVLKQKETISKKEFQVRELEDYIDNLLVRVMEETPNILRIPTQVGKKAGKM [RAB11FIP1]”, the melting temperature amounted to 51 °C in the series with HeLa Kyoto [1] (cell cycle stage: G1/S) and 50.1 °C with HeLa Kyoto [1] (cell cycle stage: mitosis). Also, in the series on HeLa Kyoto [2], the “solubility in G1/S (log2)” value is 0.306. Also, the “solubility change mitosis (log2)” value in the series with HeLa Kyoto [3] is -0.196. Moreover, the thermal stability score came out at 0.112 in the series with HeLa Kyoto [4] (setting [5]) and 0.383 in the series on HeLa Kyoto [4] (cell cycle stage: mitosis).
For the sequence “MSLQSAQYLRQAEVLKADMTDSKLGPAEVWTSRQALQDLYQKMLVTDLEYALDKKVEQDLWNHAFKNQITTLQGQAKNRANPNRSEVQANLSLFLEAASGFYTQLLQELCTVFNVDLPCRVKSSQLGIISNKQTHTSAIVKPQSSSCSYICQHCLVHLGDIARYRNQTSQAESYYRHAAQLVPSNGQPYNQLAILASSKGDHLTTIFYYCRSIAVKFPFPAASTNLQKALSKALESRDEVKTKWGVSDFIKAFIKFHGHVYLSKSLEKLSPLREKLEEQFKRLLFQKAFNSQQLVHVTVINLFQLHHLRDFSNETEQHTYSQDEQLCWTQLLALFMSFLGILCKCPLQNESQEESYNAYPLPAVKVSMDWLRLRPRVFQEAVVDERQYIWPWLISLLNSFHPHEEDLSSISATPLPEEFELQGFLALRPSFRNLDFSKGHQGITGDKEGQQRRIRQQRLISIGKWIADNQPRLIQCENEVGKLLFITEIPELILEDPSEAKENLILQETSVIESLAADGSPGLKSVLSTSRNLSNNCDTGEKPVVTFKENIKTREVNRDQGRSFPPKEVRRDYSKGITVTKNDGKKDNNKRKTETKKCTLEKLQETGKQNVAVQVKSQTELRKTPVSEARKTPVTQTPTQASNSQFIPIHHPGAFPPLPSRPGFPPPTYVIPPPVAFSMGSGYTFPAGVSVPGTFLQPTAHSPAGNQVQAGKQSHIPYSQQRPSGPGPMNQGPQQSQPPSQQPLTSLPAQPTAQSTSQLQVQALTQQQQSPTKAVPALGKSPPHHSGFQQYQQADASKQLWNPPQVQGPLGKIMPVKQPYYLQTQDPIKLFEPSLQPPVMQQQPLEKKMKPFPMEPYNHNPSEVKVPEFYWDSSYSMADNRSVMAQQANIDRRGKRSPGVFRPEQDPVPRMPFEKSLLEKPSELMSHSSSFLSLTGFSLNQERYPNNSMFNEVYGKNLTSSSKAELSPSMAPQETSLYSLFEGTPWSPSLPASSDHSTPASQSPHSSNPSSLPSSPPTHNHNSVPFSNFGPIGTPDNRDRRTADRWKTDKPAMGGFGIDYLSATSSSESSWHQASTPSGTWTGHGPSMEDSSAVLMESLKSIWSSSMMHPGPSALEQLLMQQKQKQQRGQGTMNPPH [SMG7]”, the melting temperature turned out to be 50.4 °C with HeLa Kyoto [1] (cell cycle stage: G1/S) and 49.3 °C with HeLa Kyoto [1] (cell cycle stage: mitosis). Also, the “solubility in G1/S (log2)” value with HeLa Kyoto [2] amounted to 0.0703. Also, the “solubility change mitosis (log2)” value in the series with HeLa Kyoto [3] is -0.127. Also, the thermal stability score in the series on HeLa Kyoto [4] (setting [5]) came to 0.868; in the series with HeLa Kyoto [4] (cell cycle stage: mitosis), 1.4.

Source of the values: the supplement of paper PMC5998384.
